Experimental data taken from PMC4499135.

What was measured:
Experiment in all cases: EMSA
TRF2AΔB = settings: 20 mM Hepes pH 7.9, 100 mM NaCl, 50 mM KCl, 1 mM MgCl2, 0.1 mM EDTA, 1 mM DTT, 5% glycerol, 0.5 mg/ml BSA, 0.1% NP-40, chicken erythrocyte nucleosome carrier …
TRF2 = settings: 20 mM Hepes pH 7.9, 100 mM NaCl, 50 mM KCl, 1 mM MgCl2, 0.1 mM EDTA, 1 mM DTT, 5% glycerol, 0.5 mg/ml BSA, 0.1% NP-40, chicken erythrocyte nucleosome carrier …
TRF2ΔB = settings: 20 mM Hepes pH 7.9, 100 mM NaCl, 50 mM KCl, 1 mM MgCl2, 0.1 mM EDTA, 1 mM DTT, 5% glycerol, 0.5 mg/ml BSA, 0.1% NP-40, chicken erythrocyte nucleosome carrier …
TRF1 = settings: 20 mM Hepes pH 7.9, 100 mM NaCl, 50 mM KCl, 1 mM MgCl2, 0.1 mM EDTA, 1 mM DTT, 5% glycerol, 0.5 mg/ml BSA, 0.1% NP-40, chicken erythrocyte nucleosome carrier …
TRF1-Myb = settings: histone octamer, salt dilution; 20 mM Hepes pH 7.9, 100 mM NaCl, 50 mM KCl, 1 mM MgCl2, 0.1 mM EDTA, 1 mM DTT, 5% glycerol, 0.5 mg/ml BSA, 0.1% NP-40, chicken erythrocyte nucleosome carrier …
TRF2-Myb = settings: histone octamer, salt dilution; 20 mM Hepes pH 7.9, 100 mM NaCl, 50 mM KCl, 1 mM MgCl2, 0.1 mM EDTA, 1 mM DTT, 5% glycerol, 0.5 mg/ml BSA, 0.1% NP-40, chicken erythrocyte nucleosome carrier …
[1] = intact histone octamer, scale: fold higher affinity vs naked Tel2-601-Tel2
[2] = histone tails removed by trypsin

Q: Tel2-601-Tel2 NCP was tested. Which binding signal (TRF2AΔB; [1]) did it give?
A: 2

Q: What about the binding signal (TRF2; intact histone octamer, scale: fold lower affinity vs naked Tel2-601-Tel2) of the same substance?
A: 2

Q: And the binding signal (TRF2ΔB; [1])?
A: 3

Q: And the binding signal (TRF1; [1])?
A: 3

Q: For Tel2-601-Tel2 tailless NCP, which binding signal (fold lower affinity vs intact NCP) (TRF2AΔB; [2]) is on record?
A: 3

Q: What about the binding signal (fold higher affinity vs intact NCP) (TRF2; [2]) of the same substance?
A: 2

Q: What about the binding signal (fold lower affinity vs intact NCP) (TRF2ΔB; [2]) of the same substance?
A: 2

Q: And the binding signal (fold lower affinity vs intact NCP) (TRF1; [2])?
A: 3

Q: Which binding signal (fold lower affinity vs naked Tel8-L) (TRF1-Myb) does the source give for Tel8-L NCP here?
A: 11

Q: What about the binding signal (fold lower affinity vs naked Tel8-L) (TRF2; C1/2 extrapolated, 3 experiments, histone octamer, salt dilution) of the same substance?
A: 100

Q: What about the binding signal (fold lower affinity vs naked Tel8-L) (TRF2-Myb) of the same substance?
A: 13
